44 sequences from the supplement of paper PMC10724198 can be followed below.

Data set [1] concerns Saccharomyces cerevisiae. Nature of the data set: protein stability index of tFT-peptide fusion in wild type (PSI (0-1 scale)); higher = more stable (slower turnover). The settings on record: genetic background: wild type.
Data set [2] relates to Saccharomyces cerevisiae. Nature of the data set: protein stability index of tFT-peptide fusion in deletion strain of DOA10 (PSI (0-1 scale)); higher = more stable (slower turnover). On the procedure: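 MPS profiling in S. cerevisiae of two library types built from selected 12-aa C-degron peptides (IN1, IN2, LN1, LN3, VN2, R1-R5, W1-W3, Atg1 and Rpa12 C-termini): saturation mutagenesis libraries and C-terminal +1 capping libraries (13 aa). Each peptide is fused to the C-terminus of a sfGFP-mCherry timer, after a GGGS linker. Cells are FACS-sorted into 8 mCherry/sfGFP bins and sequenced. PSI runs from 0 (unstable) to 1 (stable), measured once in wild type and in the das1Δ or doa10Δ background.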
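Wherever protein stability index of tFT-peptide fusion in deletion strain of DOA10 is given: PSI per variant is the weighted mean of its sequencing read distribution over the sorted stability bins, counting only variants with over 10 reads summed across bins.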
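Wherever protein stability index of tFT-peptide fusion in wild type is given: PSI derived as read-weighted mean over the 8 sorting bins, only variants exceeding 10 total reads kept, mCherry placed adjacent to the peptide and sfGFP distal.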

Consider CDVSLPILLFFR, for which the protein stability index is 0.0512 with Saccharomyces cerevisiae [1] and 0.648 in the data set on Saccharomyces cerevisiae [2].

On to CFVSLPILLFFR, for which the protein stability index was found to be 0.0595 in the data set on Saccharomyces cerevisiae [1] and 0.579 in the data set with Saccharomyces cerevisiae [2].

Take CLKSLPILLFFR: the results for the protein stability index in the data set on Saccharomyces cerevisiae [1] and in the data set on Saccharomyces cerevisiae [2] were 0.083 and 0.618, respectively.

With CLLSLPILLFFR, the protein stability index turned out to be 0.0527 with Saccharomyces cerevisiae [1] and 0.571 in the data set on Saccharomyces cerevisiae [2].

As for CLVALPILLFFR, the values for the protein stability index with Saccharomyces cerevisiae [1] and in the data set with Saccharomyces cerevisiae [2] were 0.0608 and 0.512, respectively.

For the sequence CLVGLPILLFFR, the protein stability index was 0.0666 with Saccharomyces cerevisiae [1] and 0.589 in the data set on Saccharomyces cerevisiae [2].

Take CLVPLPILLFFR: the results for the protein stability index with Saccharomyces cerevisiae [1] and with Saccharomyces cerevisiae [2] were 0.0703 and 0.57, respectively.

With CLVSLAILLFFR, the protein stability index came to 0.248 with Saccharomyces cerevisiae [1] and 0.351 in the data set on Saccharomyces cerevisiae [2].

For the sequence CLVSLEILLFFR, the results for the protein stability index in the data set on Saccharomyces cerevisiae [1] and with Saccharomyces cerevisiae [2] were 0.211 and 0.262, respectively.

For the sequence CLVSLIILLFFR, the protein stability index with Saccharomyces cerevisiae [1] worked out at 0.298; in the data set with Saccharomyces cerevisiae [2], 0.363.

Regarding CLVSLPILLEFR, the protein stability index with Saccharomyces cerevisiae [1] amounted to 0.518; in the data set with Saccharomyces cerevisiae [2] it was 0.638.

CLVSLPILLFFE: the protein stability index in the data set with Saccharomyces cerevisiae [1] stood at 0.454; with Saccharomyces cerevisiae [2] it was 0.57.

For the sequence CLVSLPILLFFG, the protein stability index in the data set with Saccharomyces cerevisiae [1] came to 0.447; in the data set with Saccharomyces cerevisiae [2] it was 0.52.

In the case of CLVSLPILLFFH, the figures for the protein stability index with Saccharomyces cerevisiae [1] and with Saccharomyces cerevisiae [2] were 0.204 and 0.474, respectively.

Turning to CLVSLPILLFFI, the protein stability index in the data set with Saccharomyces cerevisiae [1] stood at 0.197; with Saccharomyces cerevisiae [2], 0.436.

For the sequence CLVSLPILLFFRT, the protein stability index with Saccharomyces cerevisiae [1] amounted to 0.0656; in the data set with Saccharomyces cerevisiae [2], 0.516.

Regarding CLVSLPILLFFRY, the figures for the protein stability index with Saccharomyces cerevisiae [1] and in the data set on Saccharomyces cerevisiae [2] were 0.0612 and 0.483, respectively.

Regarding CLVSLPILLFGR, the results for the protein stability index in the data set with Saccharomyces cerevisiae [1] and with Saccharomyces cerevisiae [2] were 0.492 and 0.523, respectively.

In the case of CLVSLPILLFTR, the protein stability index in the data set with Saccharomyces cerevisiae [1] turned out to be 0.314; in the data set on Saccharomyces cerevisiae [2] it was 0.477.

In the case of CLVSLPILLTFR, the protein stability index with Saccharomyces cerevisiae [1] was found to be 0.0802; in the data set with Saccharomyces cerevisiae [2], 0.627.

Regarding CLVSLPINLFFR, the protein stability index turned out to be 0.0948 in the data set on Saccharomyces cerevisiae [1] and 0.682 in the data set with Saccharomyces cerevisiae [2].

On to CLVSLPIQLFFR, for which the protein stability index in the data set on Saccharomyces cerevisiae [1] is 0.0792; in the data set on Saccharomyces cerevisiae [2], 0.658.

On to CLVSLPITLFFR, for which the figures for the protein stability index in the data set with Saccharomyces cerevisiae [1] and with Saccharomyces cerevisiae [2] were 0.104 and 0.65, respectively.

Take CLVSLRILLFFR: the results for the protein stability index in the data set with Saccharomyces cerevisiae [1] and with Saccharomyces cerevisiae [2] were 0.152 and 0.282, respectively.

Regarding CLVSTPILLFFR, the protein stability index in the data set with Saccharomyces cerevisiae [1] amounted to 0.132; with Saccharomyces cerevisiae [2] it was 0.623.

Consider CLVWLPILLFFR, for which the figures for the protein stability index in the data set with Saccharomyces cerevisiae [1] and in the data set with Saccharomyces cerevisiae [2] were 0.0521 and 0.359, respectively.

With CRVSLPILLFFR, the protein stability index with Saccharomyces cerevisiae [1] came to 0.0571; with Saccharomyces cerevisiae [2], 0.62.

Turning to CSVSLPILLFFR, the protein stability index in the data set on Saccharomyces cerevisiae [1] came out at 0.0485; with Saccharomyces cerevisiae [2] it was 0.617.

For the sequence CVVSLPILLFFR, the protein stability index with Saccharomyces cerevisiae [1] worked out at 0.0506; with Saccharomyces cerevisiae [2], 0.589.

EVTRLDAIYFRI: the protein stability index in the data set with Saccharomyces cerevisiae [1] is 0.435; with Saccharomyces cerevisiae [2], 0.701.

Take FITLPMCPLLLR: the protein stability index with Saccharomyces cerevisiae [1] was determined as 0.333; in the data set on Saccharomyces cerevisiae [2], 0.61.

For FLVSLPILLFFR, the values for the protein stability index in the data set on Saccharomyces cerevisiae [1] and with Saccharomyces cerevisiae [2] were 0.0831 and 0.539, respectively.

On to GCYMCSVGCWFR, for which the protein stability index in the data set with Saccharomyces cerevisiae [1] is 0.326; in the data set on Saccharomyces cerevisiae [2] it was 0.667.

Turning to GIYMCSVGCWFR, the protein stability index in the data set on Saccharomyces cerevisiae [1] was determined as 0.256; in the data set with Saccharomyces cerevisiae [2], 0.611.

For the sequence GLYACSVGCWFR, the figures for the protein stability index in the data set with Saccharomyces cerevisiae [1] and in the data set on Saccharomyces cerevisiae [2] were 0.386 and 0.678, respectively.

For GLYDCSVGCWFR, the protein stability index in the data set with Saccharomyces cerevisiae [1] stood at 0.56; in the data set on Saccharomyces cerevisiae [2] it was 0.716.

Take GLYKCSVGCWFR: the protein stability index came out at 0.453 with Saccharomyces cerevisiae [1] and 0.671 in the data set on Saccharomyces cerevisiae [2].

For the sequence GLYMCEVGCWFR, the protein stability index in the data set on Saccharomyces cerevisiae [1] came to 0.485; in the data set with Saccharomyces cerevisiae [2], 0.642.

On to GLYMCGVGCWFR, for which the protein stability index in the data set with Saccharomyces cerevisiae [1] came to 0.335; with Saccharomyces cerevisiae [2], 0.682.

As to GLYMCQVGCWFR, the protein stability index came out at 0.308 in the data set with Saccharomyces cerevisiae [1] and 0.641 with Saccharomyces cerevisiae [2].

On to GLYMCSVGCGFR, for which the protein stability index was determined as 0.628 in the data set on Saccharomyces cerevisiae [1] and 0.655 in the data set on Saccharomyces cerevisiae [2].

Consider GLYMCSVGCWCR, for which the protein stability index with Saccharomyces cerevisiae [1] was 0.334; in the data set with Saccharomyces cerevisiae [2], 0.45.

For the sequence GLYMCSVGCWFD, the protein stability index with Saccharomyces cerevisiae [1] was 0.471; in the data set on Saccharomyces cerevisiae [2], 0.518.

As to GLYMCSVGCWFI, the protein stability index in the data set with Saccharomyces cerevisiae [1] worked out at 0.44; in the data set with Saccharomyces cerevisiae [2], 0.585.
